Measured values from the DeepSol protein solubility set.

Test: soluble on expression in E. coli; label from the status in PepcDB or PDB records

Row | Sequence | soluble on expression in E. coli
1 | MNQTKLNQRLKQQQLFDIYGELLTKRQACYFNEYINLDLSMQEIADKYQVKKSSIHQHIKTCNLIFNRFEAKLQLFKKQQLRLKLYEKITDPQLREQLIKLR | soluble
2 | AHHHHHHGSLCEEKLEVFENGFKDDKHNIEIHVYGGDGRKVLLALIYELYSPEYGSEYVYPFECAKEFWGIYLDSSEVKGEEAELKPLKFISESVKSKIEKELEDIKAPIEVELEKSTIYKVKDGYIVLGKNFLLDHKGRLFVFNKPQVGEIILKYIWKW | soluble
3 | MGSDKIHHHHHHMLEVPVDRPVEALTIALLRDVKHACAQLGAKFVLAGATARDILMWHLHDIRAPVATRDVDVAVCAVSWESHDALIELLVQTQRFRRHSKQQQKLLFKRSAEDYEGELDIVPFGQIEGPPGEIHWPPDGDIVMTVLGFQEAVDTAQPVSIGEGLVVPVVTLPAFVLLKLIAWKDRRLMKNTDSADLLFVLRNYIDAGNIERTYEQATDLLKAANFDAGLAAAGLLGRDVRGLAYPDTRAALRALLQSADAYETLRLDLQARAAMLLGGFIDDSDALLAAFARELLTEENGSLNGTGPQVGSTGARA | not soluble
4 | MTHHTEVFEGGTIDIEDDTSLTINGKEISYVHDAVKNKWSSRYLPYTQYDSLLDLARAIIRDTVEFSGVKE | soluble
5 | MAETPNQRITEINLNKEMRTSFLDYAMSVIVARALPDVRDGLKPVHRRILYAMNDLGMTSDKAYKKSARIVGEVIGKYHPHGDTAVYFTMVRMAQDFSYRNMLVDGHGNFGSVDGDMAAAMRYTEARMSKISMELLRDINKDTIDYADNYDGSEREPVILPARFPNLLVNGSSGIAVGMATNIPTHHLGEVIDGVLALSHDPEITIRDLMEYIPGPDFPTAGMIMGRSGIRRAYESGRGSITVRGRVDIEEKKNGKETIVITEIPYQVNKARLVERIAELAREKKIDGITSLNDESDRSGMRIVIEVRRDISASVIVNNLFKMTALQTTFGINMLALVDNHPKVLNLKEILYYYLEHQKVVIRRRTEFELRKAEARAHILEGLRIALDNIDAIIKLIRGSKTSDVAKEGLMTQFNLSDKQAQAILDMRLQRLTGLEREKIEEEYQNLVALINDLKAILADDERILEIIREELEEIKVKYADKRRTEILAGDLVSLEDEDLIPEEEVAITLTKRGYIKRLPLSTYRSQRRGGRGIQGMSTHEDDFVEHLVATSTHDTLLFFTNTGKVYRSKGYEVPEYGRTAKGIPIINLLGIESQEQVNAVINLSEFTDDSYLFFTTKHGVVKRTTLSQFAKIRQSGLRAVELRENDELISVQMTDGSKNMIIATKHGQSIYFPEENIRVMGRTAAGVRGIRLREDDEVIGMEVLEDDEKVLVVTEKGYGKQTPASQYPLRNRGGMGVKTVTITEKNGNLVAMKTVTGEEDLMLMTVSGVLIRFEIDTVSQTGRSAMGVKLIRLDEDEKVATVAKVPKEEDEVELEEEIDETLITQVPDESFEDAPGSDIEE | not soluble
6 | MKIKPVKVESIENPKRFLNSRLLTKIEVEEAIEKALKQLYINIDYFGEEYPTPATFNNIYKVMDNTEWTNGFWTGCLWLAYEYNQDKKLKNIAHKNVLSFLNRINNRIALDHHDLGFLYTPSCTAEYRINGDVKALEATIKAADKLMERYQEKGGFIQAWGELGYKEHYRLIIDCLLNIQLLFFAYEQTGDEKYRQVAVNHFYASANNVVRDDSSAFHTFYFDPETGEPLKGVTRQGYSDESSWARGQAWGIYGIPLSYRKMKDYQQIILFKGMTNYFLNRLPEDKVSYWDLIFTDGSGQPRDTSATATAVCGIHEMLKYLPEVDPDKETYKYAMHTMLRSLIEQYSNNELIAGRPLLLHGVYSWHSGKGVDEGNIWGDYYYLEALIRFYKDWELYW | soluble
7 | MSLTSTATDSPLKYYDIGLNLTDPMFHGIYNGKQYHPADYVKLLERAAQRHVKNALVTGSSIAESQSAIELVSSVKDLSPLKLYHTIGVHPCCVNEFADASQGDKASASIDNPSMDEAYNESLYAKVISNPSFAQGKLKELYDLMNQQAKPHDTSFRSIGEIGLDYDRFHYSSKEMQKVFFEEQLKISCLNDKLSSYPLFLHMRSACDDFVQILERFVVGFTDEKDTFQLQKLGASSSSGFYKFHPDRKLVVHSFTGSAIDLQKLLNLSPNIFIGVNGCSLRTEENLAVVKQIPTERLLLETDAPWCEIKRTHASFQYLAKYQEVRDFEYPAFKSVKKNKLADKLNAEELYMVKGRNEPCNMEQVAIVVSEVKDVDLATLIDTTWKTTCKIFGEGHHHHHH | soluble
8 | MGSDKIHHHHHHMLEFVNVSKSFWTGTQRKIILDKVSFTVELGTSLGILAPNGTGKTTLINMMAGLEKPDEGEIYRGCKISFPLGFMGGVINRLSAMENCRYIARLYGLDPDYVESYCRWLCGLNEYFDQPLGTYSAGMKSRFSFALMLALDFDIYLIDEGMPSSTDVEFNRKAGIILQERLETTTIVIVSHQPRTLEKFANTAAVLMNGQLHMFETLEEAKQLYDYETQG | not soluble
9 | AHHHHHHGSEKLEKTVDMNIQQMINLSVLELVKLGLKYGIFKAVSKKISYIDLLNQVDVPNKPLLKKLIDHLKLLGIIEETPTHLLLNSFSYEIRFPKEEHMYLLPDWIPSFEEIYRMVDFALITPNHPHVLMDFDKDADFWDLRLSSTFHEAYRILIAKLGEIGEGSRVLDIGCGSASPAYFGKLVGEEGEYVGVDYSPALLEIAKNRTEGLPVKLKEMDASLIKPKNKYDVAIMSFVLEYIENRRSALRNALDSLESGGKLIIVDAFKDEFRNVEALEFFEGLNSAFREYPSKKYIKEVILDEGFEVKFGDYGKAILLIEKL | soluble
10 | MFSGKRLKKRRITLGYSQSELADKLHINRSSYFNWENEKTKPNQSNLKQLAILLDVPETYFESEYKIVNTYLQLSLQNQEKVEKYAEELLQTQKVHEKIVPLFAVEVLSEIQLSAGPGEGLYDEFETETVYSEDEYTGFDIATWISGNSMEPVYKDGEVALIRSTGFDHDGAVYALNWNGSLYIKKLYREEDGFRMVSINPDVAERFIPFEDEIRIVGKIVGHFMPVIGGLEHHHHHH | soluble
11 | MDQVEIRTHTALHVVKGAVRKVLGAKWTASTYVNSNHGRLTVKFERKPSDQEMDKVFELANEKVRKNLPIIIEVLPREEAERKYGDEIYDLFLISAEVRELSIVVIPDWSINACNKQHTKFTSEIGEIIKDYWRYRNSKQLLEISFDIKC | soluble
12 | MNYIGSKYKLIPFIKENIHAVVGDNLSGTIFCDLFAGTGIVGRAFKKAVNKVISNDLEYYSFVLNQNYIGNIQEIPNQEELINEINSVALKKGFIYSYYSLGGSSRQYFSETNAQKIDAMRLKIEELKLSQNIDNCTYYFLLASLLESADKVANTASVYGAFLKRLKKSAQKELILKGADFDLSLNANEVYQQDASELIGKISGDILYLDPPYNARQYGANYHLLNTIAIYTPFAPKGKTGLPSYQKSSFCSRAKILNAFENLIKTARFKYIFLSYNNEGLMSETEIGNILKKYGTYSLMTKTYMRFKADNKRTHKAAHTKECLHILIK | not soluble
13 | IVMQFPREEYFAPGHRGCAGCGAAIVARLLLKVAGKDTIITNATGCLEVMTTPYPETSWRVPWIHTAFENAAATASGIEAAVKALKRKRGKFADKKINVIAIGGDGGTADIGFQALSGAMERGHDILYIMYDNEAYMNTGIQRSSSTPFMAATTTSPAGSKIRGEDRPKKDMTMIMAAHGIPYVATACISYPEDFMRKVKKALSIEGPKFIQVLQPCTTGWGYPPEKTIEIGRLAVETGIFPLYEIENGEFRITYKPAKRKPVREYLKMQKRYRHLTDEDIERIQKYIDEKCKLLGL | not soluble
14 | MKGLYFQQSSTDEEITFVFQEKEDLPVTEDNFVKLQVKACALSQINTKLLAEMKMKKDLFPVGREIAGIVLDVGSKVSFFQPDDEVVGILPLDSEDPGLCEVVRVHEHYLVHKPEKVTWTEAAGSIRDGVRAYTALHYLSHLSPGKSVLIMDGASAFGTIAIQLAHHRGAKVISTACSLEDKQCLERFRPPIARVIDVSNGKVHVAESCLEETGGLGVDIVLDAGVRLYSKDDEPAVKLQLLPHKHDIITLLGVGGHWVTTEENLQLDPPDSHCLFLKGATLAFLNDEVWNLSNVQQGKYLCILKDVMEKLSTGVFRPQLDEPIPLYEAKVSMEAVQKNQGRKKQVVQF | soluble
15 | GPGSWIVSRGLNYSDPMNSVVARWVQHSRVRRLTTPISCFGLFIFTATCMQLPYDFRLLREASAGIDRQTALLKKSMDERYLAYREGKIAKEQLEAKEAEAFAKSMKVQ | soluble
16 | MERVNERREQNNPNGCCLRDEDFSQFNSEAFLRELAADLNEDDTNDLSSSLFATSRIPEEHIRSTGLVERAEHYNKSVDQRTMTDARIAFEEEQLKNGKSPNAGTSGMENLADSGTHVPRRGRGDYFGKLRSFENGVSFPSRPPLTSEHSSSGDSYFNNSHKTTPNYRRFANSNDSSRDNSQMEYKAENDASHTSQSSNRFGFNSQINRTDIHPPAARHTFNPAAAYNGKITPDFRFNYIPNAAVPAPSVVPVIATHPGVAPPSIVPSPIRIGQRYPKRPDNMPKPSSEPKHLNHNYYQIELYGATQEDRIAQRIEKTVRQTEAPVRRF | not soluble
17 | MAHHHHHHMSANGKISVPEAVVNWLFKVIQPIYNDGRTTFHDSLALLDNFHSLRPRTRVFTHSDGTPQLLLSIYGTISTGEDGSSPHSIPVIMWVPSMYPVKPPFISINLENFDMNTISSSLPIQEYIDSNGWIALPILHCWDPAAMNLIMVVQELMSLLHEPPQDQAP | soluble
18 | MSPAQIIRTSHSFPPSFTGTSSSAENSHAQSPQQVLTRAFVASGELNAAFGRTSTASAQDFTSLLGTLQRELEKKTPAFPDLAELANQLADAAMGDQGGHWLGRDEQQTLKGMIDRCKSQLAHTPASDASYDLLAQVCENLKKARLHQSISQMTGEAHAKVRGVPDLLALIQLDPDILAEKPVGMPSYVKFSSFICMAKARTAELSENLRNASNEVALLLHPHADTILEQGSLRLQIVGF | not soluble
19 | MGSDKIHHHHHHSCENEFDVSDKADSLISVTVNTLNNQAAYNVGETAQAELWIQRGGLKDASGKVQFVVDPLLLDSLNQEDKTNYELLPENCYEMTNTEFTVDKNELCGYITYHPEKILALSAYNETKYVLPLRLISNDLAINPARNTSFLAFTILEPIVHISNAGVYNINPDLTSTMDIQIGVPFTNKWDILCNLTEDLSLIDEYNQINKVNFTLLPENAYTAPESVTLQEGVSQITASYQLKNNLVPGNYILPIKIGSITASQGGVPNNSLVIDEESNVLFCIVKEGNKINKSGWEVIECSSEHAGNEATYMIDDNESTYWHCKFKNEAGSSVPPFHFIIDMKKEITIAQIDLLNRGDGAANNIKWVEFYASNNNSEWDKIGAGDFNDEGTRATFRYYVKSTKARYLKLIIPEGYGNNCPPAAIRELTVYGLEGNN | not soluble
20 | SNAMLNTLIVGASGYAGAELVTYVNRHPHMNITALTVSAQSNDAGKLISDLHPQLKGIVELPLQPMSDISEFSPGVDVVFLATAHEVSHDLAPQFLEAGCVVFDLSGAFRVNDATFYEKYYGFTHQYPELLEQAAYGLAEWCGNKLKEANLIAVPGCYPTAAQLALKPLIDADLLDLNQWPVINATSGVSGAGRKAAISNSFCEVSLQPYGVFTHRHQPEIATHLGADVIFTPHLGNFPRGILETITCRLKSGVTQAQVAQALQQAYAHKPLVRLYDKGVPALKNVVGLPFCDIGFAVQGEHLIIVATEDNLLKGAAAQAVQCANIRFGYAETQSLI | soluble
